For the data set, the target named is T1, CH1° 0p (unphosphorylated C-terminal domain of histone H1°) (UniProt P10922 98-194).
T1 sequence: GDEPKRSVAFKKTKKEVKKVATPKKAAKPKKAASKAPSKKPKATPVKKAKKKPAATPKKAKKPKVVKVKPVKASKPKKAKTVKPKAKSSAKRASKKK
Description: EMSA. On the technique in general: In EMSA bound probe runs differently from free probe, usually more slowly.

B1: 50 bp dsDNA fragment (dsDNA)
DNA 1: CTATGATATATAGATAGTTAATGTAATATGATATAGATATAGGGATCC
DNA 2: GGATCCCTATATCTATATCATATTACATTAACTATCTATATATCATAG
As to B1, the binding result was “binds”.

Source of the values: PMC2504289.
